Literature values as cited in article PMC12326988, “Synthetic host defense peptide inhibits SARS-CoV-2 replication in vitro” (Antimicrobial Agents and Chemotherapy, 2025).

Test system: binding of the SARS-CoV-2 RBD to its human ACE2 receptor

B1: HD5 (peptide, UniProt Q01523 20-94, looked up)
Defensin alpha 5: ESLQERADEATTQKQSGEDNQDLAISFAGNGLSALRTSGSQARATCYCRTGRCATRESLSGVCEISGRLYRLCCR
modifications: Defensin-5
  affinity, interference with binding of SARS-CoV-2 RBD to human ACE2: 76.2 nM
